Test: soluble on expression in E. coli; label from the status in PepcDB or PDB records

Row | Sequence | soluble on expression in E. coli
1 | MNHDIDIKKVRLNCFRQSKVPGEFMLQMRIPGGIVDAKYLSQIQEIAETWGNGTFHMGMRQTFNIPGIKYENIQAVNKFIENYLQEVEVDRCNCDMKVDENGYPTIGARNVMACIGNSHCIKANVDTKDMANKIEKLVFPSHYHIKVSVAGCPNDCAKGHFQDFGVIGQARMEYHEERCIGCGACVRACEHHATRVLSLNDKGLVDKDPCCCVGCGECVLACPASAWTRKPEKFYRIVIGGRTGKQTPRMGKTFINFATEEVVLGIFANWQKFSAWALDYKPEYLHGGHLIDRAGYHKFKEIILDGVELNPEALVADNIFWAETEYRSNFNVKPIKMHKTIESNRPLRLEHHHHHH | not soluble
2 | MNHSIPTLRTERLTLRPLAMADFPAYRDFMASPRSTGVGGPYDLPSTWGVFCHDLANWHFFGHGALMIDLGETGECIGQIGINHGPLFPEKELGWLLYEGHEGRGYAAEAAVALRDWAFETLNLPTLVSYVSPQNRKSAAVAERIGGTLDPLAPRSDPEDLVYRYHQVKTA | soluble
3 | MNHTADNCIFCKIIDGQILCSKVYEDEHVLAFLDISQVTKGHTLVIPKVHKQDIFALTPEIASHIFSVVPKIANAIKAEFNPVGFNLLNNNGEKAGQTVFHFHLHLIPRYGENDGFGAVWKSHQNEYTMENLQNIASTIANSVK | not soluble
4 | MNIDTREITLEPADNARLLSLCGPFDDNIKQLERRLGIEINRRDNHFKLTGRPICVTAAADILRSLYVDTAPMRGQIQDIEPEQIHLAIKEARVLEQSAESVPEYGKAVNIKTKRGVIKPRTPNQAQYIANILDHDITFGVGPAGTGKTYLAVAAAVDALERQEIRRILLTRPAVEAGEKLGFLPGDLSQKVDPYLRPLYDALFEMLGFEKVEKLIERNVIEVAPLAYMRGRTLNDAFIILDESQNTTIEQMKMFLTRIGFNSKAVITGDVTQIDLPRNTKSGLRHAIEVLADVEEISFNFFHSEDVVRHPVVARIVNAYEAWEEAEQKRKAALAAERKREEQEQK | soluble
5 | MNIDTRIKFRHLVCFLEVARQGSLARASDALAISQPALSKSLKELETLLATTLFVRSKSGAALTDAGVAFMRFAGPSVQALRDGVSSLRSGEHETVTARLGVLSTAESLLVPEVVKRLHTRHPALIVSVMTGPSAYLLSQLRVGELDLVVGRMTDSPQIQGLTFEHLYHESMTLVVRNDHPLLAAPLKRESLEQFPLVLPLAGTTIRKFADSLFVQCGIQMPRQRLETLSLTLSRRYVQCSNAIWIAPLDAVLLELKGGTLVELDMGIREPGGSVGLCSNPALPLTRAAQWCVDELRTVGAAYREGQYA | not soluble
6 | MNIEQQLYDVVKQLIEQRYPNDWGGAAAIRVEDGTIYTSVAPDVINASTELCMETGAILEAHKFQKKVTHSICLARENEHSELKVLSPCGVCQERLFYWGPEVQCAITNAKQDIIFKPLKELQPYHWTEAYHDEMVKEWSTR | soluble
7 | MNIFSKPDPKELERANKRELRKTNRDLESDRRQMDRREKELEQEIKKLAAKGHNDAARHLAKQLVQLRNQKTKSIGMSARISGVQAQNSHMQSMAKMGSAMGTTVKTMKAMNAQMPLEKVAANMREFQMAQEKMGLTEEMMNDTLDSILDAPGDADEQDAIVNQVLDEIGIEMNSKLANVPALPTKVSSTAPADFDDLEAQLARLRS | not soluble
8 | MNIIDELEWRGAVNQQTDEEGLRKLVEEKKISLYCGVDPTGDSMHIGHLIPFMMMKRFQLAGHHPVILIGGATGTIGDPSGRQSERQLQTLEVVQHNVDALTAQMKKLFDFGGNSEVKMVNNYDWTHEINIIEFLRDYGKNFSINSMLAKDIVASRLDTGISFTEFTYQILQAMDFHHLYTKEDVQLQIGGSDQWGNITSGLDLIRKLEGHEAKVFGLTIPLLLKSDGTKFGKSAGGAVWLDPEKTTPFEFYQFWVNTDDRDVVKYLKYFTFLTKERIDELAVKVETEPHKREAQKVLAEEMTKFVHGEEALLQAVKITAALFSGDIKSLTADEIEQGFKEMPTFQSSKETKNIVEWLVDLGIEPSRRQAREDINNGAISMNGEKVTDVGTDVTVENSFDGRFIIIRKGKKNYSLVKLG | soluble
9 | MNIIIATTKSWNIKNAQKFKKENESKYNTTIITNKDELTFEKVKLINPEYILFPHWSWIIPKEIFENFTCVVFHMTDLPFGRGGSPLQNLIERGIKKTKISAIKVDGGIDTGDIFFKRDLDLYGTAEEIFMRASKIIFNDMIPELLTKRPVPQKQEGEATVFQRRKPEQSEISPDFDLEKIYDYIRMLDGEGYPRAFIKYGKYRLEFSRASMKNGKIIADVEIIEGDENE | soluble
10 | MNIKEKIVVLRNTEDGSFLKSFKNKKDVLAYNVELTDSIQLASFLPEEAYNIQKEKIDNLAETLGCDVVVIEASYDLKFVDGEDVPELTKEQKVKSMVNGMFEQVFGGE | not soluble
11 | MNILKIRHGQGHIAKIEAQSFVDGEGVRCSLYVSGCPFACENCYNKVAQNFKYGEPFHEDTLEEIMEYCAPNYISGLSILGGEPFCNVDITLKCAQTFRKRFGNTKSLWVWTGFLFEYLERDSAERKTLLELIDVLVDGPFINHLYRPNLPYKGSMNQRVIDVQASLQKRRVCEYIKSLEHHHHHH | not soluble
12 | MNILLLDGGKAFGHSHGGLNRTLHKKAKEVLTALGHNVQETVIDAGYDVEAEIEKFVWMDAVIWQMPGWWMHEPWTVKKYIDEVLTAGHGKLYQSDGRHSVNPTEGYGTGGLLQGKKHMISLTWNAPIEAFTREGDFFEGKGVDVLYMHFHKANEFLGMTRLPTFLCNDVVKNPQVEKYLADYQAHLEKVFG | not soluble
13 | MNILQNENLIIESSSFGAELTKIFSKKYDKNILWDGNKKYWGRQSPILFPIVGKLFDNETIIEENLYSMTQHGFARDMDFEIVDKGDTFVTYKLTDNESTLKKYPYSFELIINYTLNDNSIEVEWIVKNTDSKDIFFSIGGHPAFNLPFYKQNDFSKHYLEFKSKNDVEKINLNGSFTDDIIPIGKLKNLQLNPEVFKNDALIYTNIDEVSICNNDGSKYVTISMEDFPLVGIWTPYYSETNSTAPFLCIEPWYGLADSINSNKIYKDKKFINKLSKGKVFTASYNINIHLEHHHHHH | soluble
14 | MNIMLTGATGHLGTHITNQAIANHIDHFHIGVRNVEKVPDDWRGKVSVRQLDYFNQESMVEAFKGMDTVVFIPSIIHPSFKRIPEVENLVYAAKQSGVAHIIFIGYYADQHNNPFHMSPYFGYASRLLSTSGIDYTYVRMAMYMDPLKPYLPELMNMHKLIYPAGDGRINYITRNDIARGVIAIIKNPDTWGKRYLLSGYSYDMKELAAILSEASGTEIKYEPVSLETFAEMYDEPKGFGALLASMYHAGARGLLDQESNDFKQLVNDQPQTLQSFLQENILEHHHHHH | soluble
15 | MNIQWFPGHMAKTRRILAENLKMVDVVVELLDARIPASSKNPEIDGIVKNKPKIVVLNKADLADEKISNEWSKWYNSQGYATIFIDSIKGTGIKQLKDQMRDIMKDRIERDRQRGRIFRPIRTMIVGIPNVGKSSLINKIAGKKSAVTGDRPGVTRNKQWINVNNEIQLMDTPGILWPKFEDKTVGINLAVTGAIKDEIIDTVELASILLEHLSKTYPENIKKRYKLESLQDKKGYELLEEAGKKRGCIISGGEVDLTRIAAIVLDEFRGGKIGRITLERPGDAVQELVAD | not soluble
16 | MNIRNARPEDLMNMQHCNLLCLPENYQMKYYFYHGLSWPQLSYIAEDENGKIVGYVLAKMEEDPDDVPHGHITSLAVKRSHRRLGLAQKLMDQASRAMIENFNAKYVSLHVRKSNRAALHLYSNTLNFQISEVEPKYYADGEDAYAMKRDLTQMADEPASGPGSSCLLSGDLGPVSFHPLPSGLLAAAEAAPGAEGKGQAHGSGGLGEQSGEQRQRAFELRRGLS | soluble
17 | MNKFLGMYNTNTSNGGFVMSEKIYLKIDQQRYVKKPRVTIGDVMTVYCSDKDMIEKIGHITLAEFTLGKYDRKVFDALDVVGIIQKEYPDADIECLGECDFVVEYKKPEKEGTVH | not soluble
18 | MNKILLVDDDRELTSLLKELLEMEGFNVIVAHDGEQALDLLDDSIDLLLLDVMMPKKNGIDTLKALRQTHQTPVIMLTARGSELDRVLGLELGADDYLPKPFNDRELVARIRAILRRSHWSEQQQNNDNGSPTLEVDALVLNPGRQEASFDGQTLELTGTEFTLLYLLAQHLGQVVSREHLSQEVLGKRLTPFDRAIDMHISNLRRKLPDRKDGHPWFKTLRGRGYLMVSAS | soluble
